Experimental data published in the Human Domainome abundance scans (Beltran et al. 2025).

B1: F-BAR and double SH3 domains protein 1, residues 467 to 528; numbered along this chain, Q86WN1 (parent)
chain: RALPCPAHVVFRYQAGREDELTITEGEWLEVIEEGDADEWVKARNQHGEVGFVPERYLNFPD

Variants of: B1
Test: abundance fitness (aPCA) (normalised: wild type 0, dead -1); higher = more abundant; growth selection in yeast, the domain comes from the species named
Conditions: Homo sapiens

Abundance fitness: each site, then its substitutions
V31: T -0.778, A -0.465, L -0.454, W -0.837, D -0.992, M -0.501, H -0.709, Q -1.03, R -0.743, N -0.947, I -0.028, K -0.797, Y -0.431, S -0.683, F -0.991, P -0.969, G -0.888
E34: M -0.085, Q -0.026, P -0.112, I -0.165, R -0.044, N -0.016, A 0.017, S -0.101, C 0.008, H -0.071, D -0.409, G -0.17, L -0.028, F 0.127
W28: S -0.014, Q 0.026, D -0.046, F 0.134, H 0.01, K -0.004, I 0.026, R 0.039, V 0.107, M -0.024, P -0.113, G -0.217, E -0.081, T -0.053
E27: Y -0.825, L -0.961, D -0.047, K -0.369, T -0.482, P -0.811, S -1.01, F -0.795, A -0.711, W -0.911, M -0.653, Q -0.285, I -0.468, R -0.762, C -0.699, V -0.81
E30: L -0.277, R -0.474, W -0.185, P -0.753, G -0.801, I -0.353, D -0.177, Q -0.02, K -0.289, N -0.208, H -0.218, S -0.125, T -0.055, V -0.202, Y -0.238, C -0.307
E33: V -0.587, G 0.071, S 0.063, D -0.156, W -0.629, Q 0.051, T -0.305, N -0.183, M -0.266, F -0.725, K -0.344, H -0.193, I -0.785, C -0.05, Y -0.56, A -0.048
I32: W -0.276, T -0.256, L -0.059, K -0.948, Q -0.307, G -0.674, M -0.162, P -0.726, S -0.863, Y -0.063, A -0.84, C -0.557, V -0.07, D -0.73, E -0.487, F 0.018
A15: E -0.438, T -0.714, G -0.088, R -0.178, C -0.536, L -0.718, K -0.125, H -0.891, Q -0.27, D -0.661, M -0.79, V -0.585, P -0.374, Y -0.875, F -0.956, S -0.146
D19: K -0.05, Y -0.04, T 0.051, V 0.103, P -0.396, I -0.095, S 0.044, A 0.092, M -0.12, L -0.086, G 0.159, R -0.048, N -0.028, C 0.087, H -0.013, Q 0.034, W -0.426, F -0.006
E20: T -0.286, A -0.205, H -0.138, P -1.01, K -0.809, D -0.306, R -0.35, Y -0.548, C -0.103, L -0.769, M -0.475, N -0.39, S -0.385, I -0.746, F -0.284, W -0.934, V -0.626, G -0.179
G16: I -0.118, N 0.113, M 0.026, W -0.245, C 0.035, D -0.233, H -0.027, T -0.012, S 0.019, E 0.165, P -0.608, Y 0.497, Q 0.019, A 0.024, R -0.064, K 0.077, F -0.136
L29: A -0.7, R -0.728, G -0.975, D -0.642, V 0.102, T -0.782, K -1.06, N -0.577, F -1.03, I -0.004, S -0.491, M -0.508, C -0.819, P -0.688, W -1.01, H -0.6
E25: D -0.014, G -0.281, K 0.139, C -0.325, F -0.37, I -0.348, P -0.069, H -0.176, L -0.298, S 0.104, A -0.129, R -0.328, T 0.038, M -0.297, Q -0.266, Y 0.189, W -0.373, V -0.154
T24: P -0.879, H 0.036, F -0.247, L -0.081, R -0.037, Y -0.153, S -0.083, V -0.041, I -0.063, G -0.231, A -0.117, M -0.02, D 0.087, N -0.212, W -0.25, K 0.042, Q 0.051, E 0.105
Q14: T -0.204, W -0.481, Y -0.241, V -0.14
R17: M -0.091, H 0.043, P -0.797, L -0.375, G -0.09, N 0.099, F -0.214, S -0.016, W -0.346, Q -0.117, C 0.064, I -0.557, K 0.021, D -0.173, A -0.032, T -0.164, V -0.253, E -0.02
T22: L -0.778, A -0.2, Q -0.581, Y -0.844, K -0.686, V -0.898, E -0.5, S 0.069, I -0.847, N 0.09, H -0.494, C -0.265, F -0.742, M -0.652, D -0.117, P -0.704
E18: M -0.245, G -0.072, D 0.082, C -0.076, Q 0.01, Y -0.233, S -0.127, F -0.28, L -0.23, H -0.531, P -0.062, R -0.134, N -0.086, A -0.228, K -0.238, V -0.134, T -0.013, I -0.389
L21: S -0.517, H -0.701, Q -0.927, P -0.947, E -0.751, M -0.198, V -0.456, F -0.588, R -0.99, T -1.21, G -0.87, C -0.951, Y -1, K -0.989, N -0.925, D -0.851, W -0.648, I -0.49
I23: V -0.014, S -0.719, E -0.833, F -0.791, C -0.228, W -0.572, Q -0.936, T -0.227, M -0.269, Y -0.958, G -0.588, A -0.705, N -1.18, R -0.751, D -0.739, K -0.718
G26: Y -0.564, L -0.741, Q -0.34, M -0.701, R -0.558, W -0.474, D -0.047, V -0.942, T -0.871, N -0.195, F -0.871, H -0.389, P -0.776, A -0.501
